Data as given in patent publication US20240148892A1 (DUALITY BIOLOGICS SUZHOU, published 2024).

T1: human full-length B7H3 expressed on MCF-7 cells (human, UniProt Q5ZPR3 29-534)
T1 construct: also called human B7H3-expressing cells MCF-7
T1 sequence: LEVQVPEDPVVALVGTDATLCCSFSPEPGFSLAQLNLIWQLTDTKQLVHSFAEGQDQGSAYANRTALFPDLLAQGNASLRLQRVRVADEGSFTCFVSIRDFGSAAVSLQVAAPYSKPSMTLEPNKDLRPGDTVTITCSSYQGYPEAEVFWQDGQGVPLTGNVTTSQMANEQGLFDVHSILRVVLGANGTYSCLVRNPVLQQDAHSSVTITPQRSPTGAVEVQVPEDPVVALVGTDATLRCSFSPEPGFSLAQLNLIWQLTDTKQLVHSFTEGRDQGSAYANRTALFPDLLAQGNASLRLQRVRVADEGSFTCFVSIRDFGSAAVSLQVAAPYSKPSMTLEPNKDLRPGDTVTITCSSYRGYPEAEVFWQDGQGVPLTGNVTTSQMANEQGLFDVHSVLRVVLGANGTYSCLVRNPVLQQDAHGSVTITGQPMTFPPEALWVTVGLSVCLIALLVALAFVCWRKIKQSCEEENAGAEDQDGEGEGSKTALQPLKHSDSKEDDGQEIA

T2: Human B7-H3/CD276 protein, His tag (2IgB7H3) (human, UniProt Q5ZPR3-2 29-245)
T2 construct: Bought protein; 25.2 kDa used in the SPR calculation; also called human 2IgB7H3; ACRO B73-H52E2; not shown: His tag
T2 sequence (looked up): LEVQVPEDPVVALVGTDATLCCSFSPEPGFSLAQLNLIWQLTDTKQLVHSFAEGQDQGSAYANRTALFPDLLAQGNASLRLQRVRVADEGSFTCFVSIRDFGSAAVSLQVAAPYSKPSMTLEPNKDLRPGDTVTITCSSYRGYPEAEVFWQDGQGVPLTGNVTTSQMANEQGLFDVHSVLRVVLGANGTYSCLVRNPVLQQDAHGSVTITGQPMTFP


How the values were obtained:
[1] = molecular target: T1, human full-length B7H3 expressed on …; experiment: flow cytometry (FACS) on MCF-7 cells expressing human full-length B7H3
Description: FACS was used to detect the binding of antibodies to human B7H3. This method allows quantitative analysis and identification of specific molecules expressed on the surface of living cells. Unlabeled cells were used as a control to set a threshold before the assay, and the percentage change for each group that exceeded the fluorescence intensity threshold was analyzed. MCF-7 cells expressing human full-length B7H3 (1×10⁵ cells/well) were incubated with various concentrations of antibodies (3.16-fold serially diluted with 1×DPBS/1% BSA from 50 nM to 0.0005 nM) in a volume of 100 μL/well in a refrigerator set to 4° C. for 1 h. Anti-human B7H3 reference antibody enoblituzumab (MacroGeneics) was used as a positive control. Human IgG1 isotype antibody was used as a negative control. After washing the cells with 1×DPBS/1% BSA, Alexa 647 goat anti-human antibody (diluted in a 1:500 ratio in 1×DPBS/1% BSA) was added. The cells were incubated in a refrigerator set to 4° C. for 0.5 h in the dark. The mean fluorescence intensity (MFI) of the cells was measured by a flow cytometry and analyzed by FlowJo. EC₅₀ values were calculated by four-parameter non-linear regression analysis using GraphPad Prism 7 software.

[2] = molecular target: T3, cynomolgus monkey B7H3 on transfected FlpinCHO cells (cynomolgus monkey); experiment: flow cytometry (FACS) on FlpinCHO cells transfected with cynomolgus monkey B7H3
T3 construct: whole, on cells; also called W3XX088-FlpinCHO.cPro1.pool
Description: FACS was used to detect the binding of antibodies to cynomolgus monkey B7H3. FlpinCHO cells were transfected with cynomolgus monkey B7H3 (W3XX088-FlpinCHO.cProl.pool) (1×10⁵ cells/well), and the transfected cells were incubated with various concentrations of antibodies (3.16-fold serially diluted with 1×DPBS/1% BSA from 50 nM to 0.0005 nM) in a volume of 100 μL/well in a refrigerator set to 4 ° C. for 1 h. Anti-human B7H3 reference antibody enoblituzumab (MacroGeneics) was used as a positive control. Human IgG1 isotype antibody was used as a negative control. After washing the cells with 1×DPBS/1% BSA, Alexa 647 goat anti-human antibody (diluted in a 1:500 ratio in 1×DPBS/1% BSA) was added. The cells were incubated in a refrigerator set to 4° C. for 0.5 h in the dark. The mean fluorescence intensity (MFI) of the cells was measured by a flow cytometry and analyzed by FlowJo. EC₅₀ values were calculated by four-parameter non-linear regression analysis using GraphPad Prism 7 software.

[3] = molecular target: T2, Human B7-H3/CD276 protein, His tag …; experiment: SPR (Biacore 8K), antibody captured on anti-human Fc IgG, human 2IgB7H3 as analyte, 1:1 model
Description: The affinity of antibodies for human 2IgB7H3 was determined using surface plasmon resonance (SPR). The affinity of antibodies for human 2IgB7H3 was determined by Biacore 8K. An activator was prepared by mixing 400 mM EDC and 100 mM NHS (GE) immediately prior to injection into the channel. The CMS sensor chip was activated for 420 seconds with the activator. Goat anti-human Fc IgG (30 μg/mL in 10 mM NaAc, pH 4.5) was then injected into the channel at a flow rate of 10 μL/min for 420 seconds. The chip was deactivated by 1 M ethanolamine hydrochloric acid. The antibodies diluted in running buffer (1×HBS-EP+) were injected into the channel at a flow rate of 10 μL/min for 30 seconds. […] Glycine (10 mM, pH 1.5) was injected as regeneration buffer after the dissociation phase.
The sensorgrams for the reference channel and the buffer channel were subtracted from the test sensorgrams. The experimental data were fitted with a 1:1 binding model. The molecular weight of the human 2IgB7H3 used in the calculation was 25.2 kDa.
The experimental data were fitted by a 1:1 binding model bundled with the Biacore 8K evaluation software.

Row | Binder | EC50 [1] [nM] | EC50 [2] [nM] | Kd [3] [nM] | koff [3] [s⁻¹] | kon [3] [M⁻¹ s⁻¹]
1 | Enoblituzumab (MacroGenics) (antibody, V domains shown) VH: EVQLVESGGGLVQPGGSLRLSCAASGFTFSSFGMHWVRQAPGKGLEWVAYISSDSSAIYYADTVKGRFTISRDNAKNSLYLQMNSLRDEDTAVYYCGRGRENIYYGSRLDYWGQGTTVTVSS VL: DIQLTQSPSFLSASVGDRVTITCKASQNVDTNVAWYQQKPGKAPKALIYSASYRYSGVPSRFSGSGSGTDFTLTISSLQPEDFATYYCQQYNNYPFTFGQGTKLEIKR | 2.49 | 9.58 | 261 | 0.0168 | 64400
2 | W301088-1.145.16-xIgG1KV320 (antibody, V domains shown) VH: DVQLQESGPGLVKPSQSLSLTCTVTDYSITGDYAWNWIRQFPGNKLEWMGYISYSGSTSYNPSLQSRISITRDTSKNQFFLQLNSVTSEDTATYFCARSLGRRWYFVVWGAGTTVTVSA VL: not shown | 1.16 | 5.25 | 57.7 | 0.0136 | 235000
3 | W301088-1.145.16-z3-p1-uIgG1KV320 (antibody, V domains shown, Humanized, PTM-removed (VL N027dQ) human IgG1 LALA kappa antibody; also called WBP301088; W301088-z3-p1) VH: QVQLQESGPGLVKPSQTLSLTCTVTDYSITGDYAWNWIRQHPGKGLEWIGYISYSGSTSYNPSLQSRVTISRDTSKNQFSLKLSSVTAADTAVYFCARSLGRRWYFVVWGQGTTVTVSS VL: not shown | 1.08 | 4.68 | 46.4 | 0.0141 | 303000
